Common to all, as to settings: both partners purified
Assay [1] has as its target T1, ADO-F256A, biotinylated (pQE80L-Navi-ADO) (human, UniProt Q96SZ5 1-270, F256A, biotin on the Avi tag).
T1 construct: Tag as in Dm1; source: E. coli Rosetta2(DE3), purified (Ni-NTA, SEC); not shown: Avi tag, N-terminal, kept; His6, N-terminal, kept
T1 sequence (looked up): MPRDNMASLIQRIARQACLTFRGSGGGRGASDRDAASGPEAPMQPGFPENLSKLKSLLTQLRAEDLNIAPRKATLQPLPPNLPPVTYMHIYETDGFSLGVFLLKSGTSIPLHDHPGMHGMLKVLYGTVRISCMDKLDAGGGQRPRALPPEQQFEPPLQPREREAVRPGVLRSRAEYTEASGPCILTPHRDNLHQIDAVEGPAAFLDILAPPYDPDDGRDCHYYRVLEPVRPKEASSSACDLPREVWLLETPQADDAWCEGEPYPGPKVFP
Put plainly: SPR; single-cycle kinetics (SCK), 1:1 binding model; biotinylated ADO or variant immobilised on a Biotin CAP chip, peptide injected at 25.6, 64, 160, 400, 1000 nM; 4 °C; 20 mM HEPES pH 7.5, 500 mM NaCl, 10 mM DTT, 0.1% (v/v) tween-20; 50 μL/minute.

Assay [2] has as its target T2, ADO-D206E, biotinylated (pQE80L-Navi-ADO) (human, UniProt Q96SZ5 1-270, D206E, biotin on the Avi tag).
T2 construct: Tag as in Dm1; source: E. coli Rosetta2(DE3), purified (Ni-NTA, SEC); not shown: Avi tag, N-terminal, kept; His6, N-terminal, kept
T2 sequence (looked up): T1 sequence (looked up) with D206E, A256F
The assay is described as above.

Assay [3] has as its target T3, ADO-I109A, N-terminally His-tagged and biotinylated (human, UniProt Q96SZ5 1-270, I109A, biotin (biotinylated during expression)).
T3 construct: 2-aminoethanethiol dioxygenase (ADO), human, UniProt Q96SZ5, full length, site-directed mutant; source: E. coli Rosetta2(DE3), purified (Ni-NTA, SEC); not shown: biotinylation tag (from the vector pQE80L-Navi), N-terminal, kept
T3 sequence (looked up): T1 sequence (looked up) with I109A, A256F
Put plainly: SPR; biotinylated ADO or ADO mutant immobilised on a Biotin CAP chip (~2500-3000 RU), substrate peptide injected; Biacore T200, 4 °C; 20 mM HEPES pH 7.5, 500 mM NaCl, 10 mM DTT, 0.1% tween-20; 50 µL/minute; multi-cycle or single-cycle mode not given; each cell is one of three independent measurements.

For assay [4], the target named is T4, ADO-D206E, N-terminally His-tagged and biotinylated (human, UniProt Q96SZ5 1-270, D206E, biotin (biotinylated during expression)).
T4 construct: 2-aminoethanethiol dioxygenase (ADO), human, UniProt Q96SZ5, full length, site-directed mutant; source: E. coli Rosetta2(DE3), purified (Ni-NTA, SEC); not shown: biotinylation tag (from the vector pQE80L-Navi), N-terminal, kept
T4 sequence (looked up): T1 sequence (looked up) with D206E, A256F
The assay is described as above.

Assay [5] addresses T5, ADO-C220A, N-terminally His-tagged and biotinylated (human, UniProt Q96SZ5 1-270, C220A, biotin (biotinylated during expression)).
T5 construct: 2-aminoethanethiol dioxygenase (ADO), human, UniProt Q96SZ5, full length, site-directed mutant; source: E. coli Rosetta2(DE3), purified (Ni-NTA, SEC); not shown: biotinylation tag (from the vector pQE80L-Navi), N-terminal, kept
T5 sequence (looked up): T1 sequence (looked up) with C220A, A256F
Described as above.

Assay [6] concerns the target T6, ADO-Y222A, N-terminally His-tagged and biotinylated (human, UniProt Q96SZ5 1-270, Y222A, biotin (biotinylated during expression)).
T6 construct: 2-aminoethanethiol dioxygenase (ADO), human, UniProt Q96SZ5, full length, site-directed mutant; source: E. coli Rosetta2(DE3), purified (Ni-NTA, SEC); not shown: biotinylation tag (from the vector pQE80L-Navi), N-terminal, kept
T6 sequence (looked up): T1 sequence (looked up) with Y222A, A256F
Described as above.

Residue numbers refer to the chain shown, from its start. “And” between values parts separate entries of the source, which are not always exact repeats. Equal values may be shown once.

B1: RGS5_(2-15), synthetic peptide corresponding to the methionine excised N-terminus of RGS5, residues 2 to 15 (peptide, UniProt O15539 2-15, looked up)
peptide: CKGLAALPHSCLER
notes: Regulator of G-protein signalling 5 (RGS5), residues 2 to 15, N-terminal Cys; also called RGS5 peptide; source: synthetic peptide
Take B1: the Kd was 0.73 µM in assay [1] and 1.1 µM in assay [2].

B2: IL32(2-15), synthetic peptide corresponding to the methionine excised N-terminus of IL32, residues 2-15 (peptide, UniProt P24001 2-15, looked up)
peptide: CFPKVLSDDMKKLK
notes: interleukin 32 (IL32), residues 2-15 (N-terminal Cys exposed); also called 14-mer IL32; source: synthetic peptide
B2: the Kd in assay [3] is 14.2 µM and 15.1 µM and 18.4 µM; in assay [4], 1.21 µM and 1.27 µM and 1.44 µM; in assay [5] it was 1.44 µM and 1.18 µM and 1.43 µM; in assay [6] it was 0.921 µM and 1.04 µM and 1.1 µM.
